From patent publication US20140120106A1, “Stimulation of Arterial Collateral Growth and Lymphogenesis” (YALE UNIVERSITY, priority 2011, published 2014)

Target: T1, HA-tagged human Raf1 S259A (human, UniProt P04049 1-648)
T1 construct: Overexpressed in HUVEC by lentivirus, immunoprecipitated from Triton lysates with anti-HA; also called Raf1SA; RAF1 Ser259 to Ala259 mutant; not shown: HA (hemagglutinin) tag
Assay: co-immunoprecipitation (anti-HA) from lentivirus-infected HUVEC lysates, western blot

B1: 14-3-3 (other, human, UniProt P63104 1-245, looked up)
chain: MDKNELVQKAKLAEQAERYDDMAACMKSVTEQGAELSNEERNLLSVAYKNVVGARRSSWRVVSSIEQKTEGAEKKQQMAREYREKIETELRDICNDVLSLLEKFLIPNASQAESKVFYLKMKGDYYRYLAEVAAGDDKKGIVDQSQQAYQEAFEISKKEMQPTHPIRLGLALNFSVFYYEILNSPEKACSLAKTAFDEAIAELDTLSEESYKDSTLIMQLLRDNLTLWTSDTQGDEAEAGEGGEN
notes: The results speak only of '14-3-3'; the zeta isoform is inferred from the antibody list; Endogenous protein in the cell lysate; also called 14-3-3 protein; 14-3-3ζ
B1: no binding.
